Assay results taken from paper PMC11275989, “Molecular Basis for the Calcium-Dependent Activation of the Ribonuclease EndoU”.

Biological target: T1, EndoU catalytic domain (human, UniProt P21128 135-410)
T1 sequence: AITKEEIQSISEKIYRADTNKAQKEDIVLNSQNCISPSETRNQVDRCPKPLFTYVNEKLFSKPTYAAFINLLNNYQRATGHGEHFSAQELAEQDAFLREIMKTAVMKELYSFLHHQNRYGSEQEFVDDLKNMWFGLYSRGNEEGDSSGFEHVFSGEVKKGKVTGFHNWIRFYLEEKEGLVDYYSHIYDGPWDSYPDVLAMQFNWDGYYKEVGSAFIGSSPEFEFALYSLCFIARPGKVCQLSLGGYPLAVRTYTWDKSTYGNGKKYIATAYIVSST
Assay: NMR; Ca2+ (calcium-activated EndoU); NMR: 10 mM Tris pH 7, 50 mM NaCl, 1 mM TCEP, 10% D2O, 35 C; EndoU 350 uM (Fig. 4)
Settings: protein: recombinant; tags: GB1-His6 removed by TEV; residual N-terminal GGSEFA; single strand

AAGUCC (XNA, 2'-F at all nucleotides (non-cleavable)) [2'-fluorinated RNA AAGUCC]
binding result: binds

UUUUUU (XNA, 2'-F) [2'F (U)6 RNA]
binding result: binds
